Where no end group is shown, it is not given here.
How the values were obtained:
[1] = Fluorescence imaging (IVIS) of subcutaneous dose absorption; type: in vivo, mouse
Protocol: Preparation of Animal Experiment FUD and 10-40 kDa PEG-FUD Drug Dose: A 12.5 mg FUD equivalents per kg of mouse weight drug dose spiked with 1.5% Cy5 labeled drug was prepared by mixing an appropriate amount of unlabeled and labeled drug in a conical vial. The drug was then dialyzed ON into phosphate buffered saline (pH 7.4) using a 3000 MWCO dialysis membrane. The total volume of the dose was reduced to the appropriate value using a 3000 MWCO Amicon® Ultra-15 centrifugal unit. The final concentration of the drug was determined using a UV-vis spectrophotometer and the 646 nm extinction coefficient of Cy5, ε=271000 L·mol^−1·cm^−1.
10 week old mice weighing 20-23 g were placed under 2% isoflurane anesthesia and positioned on their abdomen inside of an IVIS Spectrum In Vivo Imaging System. A 100 uL dose containing 0.27 mg (12.5 mg/kg) of FUD or FUD equivalents of 10-40 kDa PEG-FUD that was spiked with 1.5% Cy5 labeled drug was delivered subcutaneously between the shoulder blades of the animals (n=3 per treatment group). The animals were imaged before the injection, immediately following injection, and at time points of 30 minutes and 1, 3, 6, 12, 24, 36, and 48 hours. The animals were sacrificed following the last time point and their organs were harvested for ex vivo fluorescence imaging and drug extraction and quantification. LivingImage® (PerkinElmer) software was used to analyze the views of each animal group. The autodraw feature of the software set to a 5% threshold was used to create unique regions of interest (ROI) on each animal at t=30 mins views that were consistently applied to each subsequent time point views to quantify drug levels present at the site of injection. Baseline autoflorescence values calculated from ROIs applied to “before injection” views were subtracted from the values of each time point's animals. The ROI values obtained from the t=30 mins views were used to calculate % dose remaining for each subsequent time point.

[2] = biological target: T1, 70K N-terminal domain of FN (Homo sapiens, UniProt P02751); details: background statement; cited from earlier work
T1 construct: specifically to the 70K N-terminal domain of FN involved in fibrillogenesis

[3] = Bleomycin model: PEG-FUD organ accumulation (Western blot, ex vivo fluorescence imaging); type: in vivo, mouse; details: day 3-13 s.c. injection, bleomycin-injured vs uninjured (NS) lungs
Protocol: Separately, on day three post-bleomycin treatment, another animal set was treated with a single SC dose of PEG-FUD mixed with 25% Cy5-fluorophore labeled PEG-FUD or fully unlabeled PEG-FUD control (12.5 mg/kg). These mice were sacrificed seven days post-bleomycin treatment and their lungs, kidneys and livers imaged ex vivo using the fluorescence protocol on In Vivo Imaging System.
Western blot: Homogenized lung tissue was lysed for protein using 5% SDS/5 M Urea lysing buffer. The lysates were sonicated and boiled for 5 min prior to being subject to electrophoresis on polyacrylamide gels at 400 V for 2 hours and transferred at 100 V for 2.5 hours. Membranes were blotted with in-house made anti-FUD antibody produced in rabbit (0.7 μg/ml suspended in 2% bovine serum albumin) or β-actin housekeeping antibody produced in mouse (Sigma-Aldrich, 2 μg/ml suspended in 2% bovine serum albumin) and corresponding HRP-conjugated secondary antibody (1:3000). Blots were developed using an enhanced chemiluminescence (ECL) reaction (GE) and imaged on GE LAS4000 chemiluminescence imager to obtain images below the saturated threshold. […]
In Vivo Imaging System: Lungs, livers and kidneys of mice treated with bleomycin or NS and a single dose of SC Cy5-PEG-FUD or unlabeled PEG-FUD were imaged using the fluorescence protocol in the In Vivo Imaging System. […]

[4] = UUO kidney ECM fraction, s.c. approximately 12.5 mg/kg daily; extrapolated
Protocol: Unilateral Ureteral Obstruction model. Male C57BL/6 mice were purchased from Envigo (Madison, Wis.) and housed in the Wisconsin Institutes for Medical Research animal facilities at the University of Wisconsin-Madison with ad-libitum access to food and water. Animals were maintained in humidity and temperature-controlled rooms under 12 h light/dark cycles. All work was conducted under protocol M5421, reviewed and approved by the University of Wisconsin-Madison Institutional Animal Care and Use Committee. All efforts were made to minimize suffering. The Unilateral Ureteral Obstruction (UUO) model is a rodent surgical model representing a human equivalent of […]. Obstruction results in marked dilatation of the ureter together with reduced renal blood flow and glomerular filtration. […]
Tissue extraction and immunoblotting: Kidney tissues were fractionated as described in the art. […] Relative quantitation of specific blotted protein was performed by assessing band intensities using Image J and normalizing to bands obtained with rabbit anti-Histone 3 rabbit IgG (CellSignalTechnology, Danves, Mass., USA) or goat anti-GAPDH-HRP conjugated IgG (Genscript, Piscataway, N.J., USA), which were used as loading controls for ECM or lysate fractions, respectively.

T1 sequence (P02751 32-609 limits assumed): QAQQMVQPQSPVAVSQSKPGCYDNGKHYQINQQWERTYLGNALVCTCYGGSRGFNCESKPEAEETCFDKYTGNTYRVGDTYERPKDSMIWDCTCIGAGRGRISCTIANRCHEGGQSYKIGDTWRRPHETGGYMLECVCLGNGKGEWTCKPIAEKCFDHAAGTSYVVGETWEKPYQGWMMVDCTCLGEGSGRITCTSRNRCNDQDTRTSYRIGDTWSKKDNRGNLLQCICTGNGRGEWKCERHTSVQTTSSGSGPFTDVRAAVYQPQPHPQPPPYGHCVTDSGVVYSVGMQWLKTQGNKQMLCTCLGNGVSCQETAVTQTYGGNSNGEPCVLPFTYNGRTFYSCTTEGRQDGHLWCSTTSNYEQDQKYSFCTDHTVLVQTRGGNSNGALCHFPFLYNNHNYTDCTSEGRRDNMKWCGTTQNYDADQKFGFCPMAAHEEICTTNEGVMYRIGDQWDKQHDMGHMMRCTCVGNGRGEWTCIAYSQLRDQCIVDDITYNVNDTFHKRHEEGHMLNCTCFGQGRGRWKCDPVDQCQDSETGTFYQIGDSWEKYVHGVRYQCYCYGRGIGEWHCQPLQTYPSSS

Substance | % dose remaining at the site of injection after 24 hours ([1]; s.c. 12.5 mg/kg FUD equivalents, 24 hours) | apparent half-life at the site of injection ([1]; s.c. 12.5 mg/kg, spiked with 1.5% Cy5 labeled drug, nude mice) | binding affinity [2] | PEG-FUD accumulation in lungs (Western blot) [3] | PEG-FUD level in kidney [4]
FUD: 49 amino acid FUD peptide, SEQ ID NO: 1, recombinantly expressed, His-tag removed; inhibitor of fibronectin fibrillogenesis (KDQSPLAGESGETEYITEVYGNQQNPVDIDKKLPNETGFSGNMVETEDT; human) [reference compound] | 0.3% | 35 min | nanomolar affinity |  | 
PEG-FUD: PEGylated FUD prepared as in Example 1, PEG size not stated; approximately 27 kDa by mass spectrometry, likely the 20 kDa conjugate (KDQSPLAGESGETEYITEVYGNQQNPVDIDKKLPNETGFSGNMVETEDT; not fully specified (N-terminus); also: PEG size not given here) |  |  |  | striking increase in PEG-FUD accumulation in bleomycin-injured lungs | ~50 ng per mg

Reference: patent US10828372B2, “Compositions and methods for the inhibition of fibrosis” (WISCONSIN ALUMNI RESEARCH FOUNDATION, priority 2017, dated 2020)
